Experimental data as given in article PMC8904060.

Columns and labels:
[1] = target: FimH variant 5 (recombinant dscFimH-His6) (E. coli | not stated) (UniProt P08191); assay: SPR; BIAcore T200; FimH variant immobilised on CM5 chip (target amount 2,000 RU); GP2 isoforms as analytes at 0.5, 2.0, 6.0, 16 and 29 uM in PBS-P+; 25 C, 30 uL/min; association 3 min, dissociation 10 min; global 1:1 Langmuir fit
[2] = target: FimH variant 9 (recombinant dscFimH-His6) (E. coli | not stated) (UniProt P08191); assay: as above

Row | Substance | Kd [1] | koff [1] | kon [1] | Kd [2] | koff [2] | kon [2]
1 | bovine GP2 isoform 1 (major zymogen granule membrane glycoprotein 2), recombinant secreted form (natural protein) | 179 nM | 9.65e-05 s⁻¹ | 538 M⁻¹ s⁻¹ | 340 nM | 0.000187 s⁻¹ | 551 M⁻¹ s⁻¹
2 | bovine GP2 isoform 2 (major zymogen granule membrane glycoprotein 2), recombinant secreted form (natural protein) | 136 nM | 7.41e-05 s⁻¹ | 545 M⁻¹ s⁻¹ | 93.4 nM | 5.72e-05 s⁻¹ | 612 M⁻¹ s⁻¹
3 | porcine GP2 isoform 1, recombinant (natural protein) | 22.6 nM | 1.71e-05 s⁻¹ | 758 M⁻¹ s⁻¹ | 158 nM | 8.44e-05 s⁻¹ | 535 M⁻¹ s⁻¹
4 | porcine GP2 isoform 2, recombinant (natural protein) | 95.7 nM | 8.32e-05 s⁻¹ | 870 M⁻¹ s⁻¹ | 98.5 nM | 8.84e-05 s⁻¹ | 898 M⁻¹ s⁻¹
5 | human GP2 isoform 4, recombinant (natural protein) | 21.7 nM | 1.68e-05 s⁻¹ | 772 M⁻¹ s⁻¹ | 0.927 nM | 4.31e-07 s⁻¹ | 465 M⁻¹ s⁻¹
6 | human GP2 isoform 2, recombinant (natural protein) | 97.8 nM | 0.000102 s⁻¹ | 1040 M⁻¹ s⁻¹ | 22.5 nM | 2.38e-05 s⁻¹ | 1060 M⁻¹ s⁻¹
